Data as given in paper PMC3025578.

T1: BamHI (Bacillus amyloliquefaciens, UniProt P23940 1-213)
T1 sequence: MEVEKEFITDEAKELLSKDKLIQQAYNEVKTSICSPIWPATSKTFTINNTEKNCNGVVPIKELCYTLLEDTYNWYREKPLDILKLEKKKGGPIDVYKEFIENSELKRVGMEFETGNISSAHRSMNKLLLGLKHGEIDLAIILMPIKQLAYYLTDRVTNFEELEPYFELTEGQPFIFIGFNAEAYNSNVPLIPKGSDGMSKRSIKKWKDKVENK

T2: OkrAI (Oceanospirillum kriegii, UniProt E2JKI3 1-194)
T2 sequence: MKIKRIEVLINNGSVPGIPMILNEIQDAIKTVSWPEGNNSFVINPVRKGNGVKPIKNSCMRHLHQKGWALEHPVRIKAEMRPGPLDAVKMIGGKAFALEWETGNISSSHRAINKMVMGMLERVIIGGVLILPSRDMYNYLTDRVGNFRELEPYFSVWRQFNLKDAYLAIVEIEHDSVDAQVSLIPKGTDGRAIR


How the values were obtained:
BamHI = molecular target: T1, BamHI; test: fluorescence anisotropy
OkrAI [1] = molecular target: T2, OkrAI; test: fluorescence anisotropy
OkrAI [2] = molecular target: T2, OkrAI; test: X-ray crystallography

Binder | Kd (BamHI) [nM] | Kd (OkrAI [1]) [nM] | binding result (OkrAI [2])
20-mer cognate duplex (dsDNA) DNA 1: TATGAGCGGATCCTTACGAG DNA 2: CTCGTAAGGATCCGCTCATA | 8.3 | 12.9 | –
palindromic 12-mer (dsDNA) DNA 1: TATGGATCCATA DNA 2: TATGGATCCATA | – | – | binds
